B1: Forkhead box protein P1 (Homo sapiens), Q9H334 (parent)
chain: MMQESGTETKSNGSAIQNGSGGSNHLLECGGLREGRSNGETPAVDIGAADLAHAQQQQQQALQVARQLLLQQQQQQQVSGLKSPKRNDKQPALQVPVSVAMMTPQVITPQQMQQILQQQVLSPQQLQVLLQQQQALMLQQQQLQEFYKKQQEQLQLQLLQQQHAGKQPKEQQQVATQQLAFQQQLLQMQQLQQQHLLSLQRQGLLTIQPGQPALPLQPLAQGMIPTELQQLWKEVTSAHTAEETTGNNHSSLDLTTTCVSSSAPSKTSLIMNPHASTNGQLSVHTPKRESLSHEEHPHSHPLYGHGVCKWPGCEAVCEDFQSFLKHLNSEHALDDRSTAQCRVQMQVVQQLELQLAKDKERLQAMMTHLHVKSTEPKAAPQPLNLVSSVTLSKSASEASPQSLPHTPTTPTAPLTPVTQGPSVITTTSMHTVGPIRRRYSDKYNVPISSADIAQNQEFYKNAEVRPPFTYASLIRQAILESPEKQLTLNEIYNWFTRMFAYFRRNAATWKNAVRHNLSLHKCFVRVENVKGAVWTVDEVEFQKRRPQKISGNPSLIKNMQSSHAYCTPLNAALQASMAENSIPLYTTASMGNPTLGNLASAIREELNGAMEHTNSNESDSSPGRSPMQAVHPVHVKEEPLDPEEAEGPLSLVTTANHSPDFDHDRDYEDEPVNEDME

Variants of: B1
Conditions: with foxp2_human FOXP2, O15409
Chain of foxp2_human FOXP2, O15409 (O15409 whole entry): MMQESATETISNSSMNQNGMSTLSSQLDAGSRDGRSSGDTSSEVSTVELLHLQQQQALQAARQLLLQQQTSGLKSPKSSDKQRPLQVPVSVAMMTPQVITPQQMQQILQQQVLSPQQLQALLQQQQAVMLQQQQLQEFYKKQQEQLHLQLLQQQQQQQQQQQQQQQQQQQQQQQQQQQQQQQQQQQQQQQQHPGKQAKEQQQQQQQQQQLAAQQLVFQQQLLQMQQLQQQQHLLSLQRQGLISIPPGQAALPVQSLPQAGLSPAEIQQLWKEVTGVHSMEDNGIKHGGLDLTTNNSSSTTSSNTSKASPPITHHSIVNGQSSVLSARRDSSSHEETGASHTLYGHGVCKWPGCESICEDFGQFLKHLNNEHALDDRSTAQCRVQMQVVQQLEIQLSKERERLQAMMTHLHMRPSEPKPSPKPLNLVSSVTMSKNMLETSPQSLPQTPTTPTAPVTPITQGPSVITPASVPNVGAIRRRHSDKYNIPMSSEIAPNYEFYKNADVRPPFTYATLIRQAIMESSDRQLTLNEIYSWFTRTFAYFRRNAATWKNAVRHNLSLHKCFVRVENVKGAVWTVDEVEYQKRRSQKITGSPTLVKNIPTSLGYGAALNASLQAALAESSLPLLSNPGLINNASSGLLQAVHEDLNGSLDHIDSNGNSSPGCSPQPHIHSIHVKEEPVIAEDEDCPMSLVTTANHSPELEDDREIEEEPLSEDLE

effect of a mutation on the interaction	Variant
decreasing interaction strength	W534R
with no effect	N570S
with no effect	N597T

The next lines start with the variant.

Variant	effect of a mutation on the interaction
R465G	with no effect
P215A	decreasing interaction strength
I107T	disrupting interaction strength
R514C	decreasing interaction strength

Variants of: B1
Conditions: with foxp2_human FOXP2, O15409
Remark: another data set of the same source

effect of a mutation on the interaction	Variant
disrupting interaction strength	W534R
decreasing interaction strength	R465G
